What was measured:
Assay in all cases: native gel or EMSA
[1] = biological target: GluA1 lacking the extracellular domains (GluA1-ΔECD) (rat)
[2] = biological target: GluA1 AMPA receptor subunit, wild type (rat, flip) (rat)
[3] = biological target: GluA1-TARP γ-2 tandem (rat)
[4] = biological target: GluA2(R), edited form of the GluA2 AMPA receptor subunit (rat, flip) (rat)
[5] = biological target: GluA1(G816A)-TARP γ-2 tandem (rat)
[6] = biological target: GluA1(G816A) (rat)

Chain of GluA2(R), edited form of the GluA2 AMPA receptor subunit (rat, flip) (P19491 22-883): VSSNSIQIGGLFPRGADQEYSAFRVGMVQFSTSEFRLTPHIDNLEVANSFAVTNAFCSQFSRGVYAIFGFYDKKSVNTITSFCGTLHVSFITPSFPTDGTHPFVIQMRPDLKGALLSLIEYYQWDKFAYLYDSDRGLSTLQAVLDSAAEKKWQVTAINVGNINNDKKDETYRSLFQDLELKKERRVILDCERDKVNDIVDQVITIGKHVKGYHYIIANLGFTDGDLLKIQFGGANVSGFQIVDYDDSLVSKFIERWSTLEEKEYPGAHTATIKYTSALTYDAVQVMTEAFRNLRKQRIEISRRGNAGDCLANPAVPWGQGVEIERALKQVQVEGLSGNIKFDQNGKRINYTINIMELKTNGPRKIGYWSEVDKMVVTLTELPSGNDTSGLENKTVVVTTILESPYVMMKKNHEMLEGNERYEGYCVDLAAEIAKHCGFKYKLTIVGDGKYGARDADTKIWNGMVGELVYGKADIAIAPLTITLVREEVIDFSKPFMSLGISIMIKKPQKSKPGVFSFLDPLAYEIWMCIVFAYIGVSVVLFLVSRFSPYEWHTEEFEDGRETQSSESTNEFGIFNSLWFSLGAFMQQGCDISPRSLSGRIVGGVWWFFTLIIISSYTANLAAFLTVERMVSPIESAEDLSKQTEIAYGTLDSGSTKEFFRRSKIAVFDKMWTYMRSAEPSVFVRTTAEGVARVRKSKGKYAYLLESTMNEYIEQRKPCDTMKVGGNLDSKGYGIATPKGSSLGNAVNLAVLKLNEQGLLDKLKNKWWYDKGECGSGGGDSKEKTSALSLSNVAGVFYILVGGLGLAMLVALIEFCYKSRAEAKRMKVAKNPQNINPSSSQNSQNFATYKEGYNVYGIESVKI

GluA1 lacking the extracellular domains (GluA1-ΔECD) (domain or fragment)
stoichiometry N [1]: 4

GluA1 AMPA receptor subunit, wild type (rat, flip)
stoichiometry N [2]: 4

GluA1-TARP γ-2 tandem
stoichiometry N [3]: 4

GluA2(R), edited form of the GluA2 AMPA receptor subunit (rat, flip)
stoichiometry N [4]: 4

GluA1(G816A)-TARP γ-2 tandem
stoichiometry N [5]: 4

GluA1(G816A) (receptor)
tetramer formation [6]: 50%

Reference: doi:10.1101/2023.02.07.527516
